Our source for the stoichiometry N values is paper PMC7796288.

The target in the experiment is Pomacea bridgesii metallothionein 2 (PbrMT2), recombinant Cd(II)-loaded preparation (Pomacea bridgesii). The experiment can be described thus: native MS; ESI-TOF MS at neutral pH (7.0), running buffer 5:95 acetonitrile:ammonium acetate (15 mM); Cd-PbrMT2 production from a CdCl2-supplemented culture; dimeric species seen together with monomeric Cd8- and Cd9- species.

As to “Pomacea bridgesii metallothionein 2 (PbrMT2), recombinant Cd(II)-loaded preparation (natural protein)”, the stoichiometry N was 2.

For orientation: stoichiometry N means the number of molecules, sites or subunits per partner or assembly.
